Results reported in publication PMC6542021.

Assays:
[1] = target: FcγRIII CD16 on NK cells (human (endogenous in NK cells of healthy donors)) (UniProt P08637); assay: FACS; NK cells within PBMC
[2] = target: FcγRIII CD16 on NK cells (human (endogenous in NK cells of healthy donors)) (UniProt P08637); assay: flow cytometry on cells; PBMC of healthy donors incubated with the indicated concentrations of NKG2D-Fc-ADCC, followed by an anti-human PE conjugate; EC50 from MFI by a sigmoidal dose-response curve (GraphPad Prism); one representative experiment of three
CD3 (Homo sapiens) = assay: FACS; T cells within PBMC; settings: other; Only the NKG2D limits and the CH2 changes are printed. UCHT1 VH/VL are taken from the 1XIW scFv complex (entity order VL=3, VH=4 from memory). Human CH1/hinge and human C-kappa are assumed (KappaSelect purification, anti-human PE detection). CH2 end (EU 340) is by convention. G236 (P01857 119) is deleted; EU number = P01857 number + 117. Junction residues are not printed. Fab interchain disulfide; modification not given
CD3 (Homo sapiens), sequence (P07766 23-207, chain 1 of 3): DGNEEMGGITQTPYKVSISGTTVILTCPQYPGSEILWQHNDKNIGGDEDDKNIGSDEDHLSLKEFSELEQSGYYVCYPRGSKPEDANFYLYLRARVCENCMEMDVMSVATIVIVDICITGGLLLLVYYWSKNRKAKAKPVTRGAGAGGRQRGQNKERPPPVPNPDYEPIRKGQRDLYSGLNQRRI
CD3 (Homo sapiens), sequence (P04234 22-171, chain 2 of 3, further chain): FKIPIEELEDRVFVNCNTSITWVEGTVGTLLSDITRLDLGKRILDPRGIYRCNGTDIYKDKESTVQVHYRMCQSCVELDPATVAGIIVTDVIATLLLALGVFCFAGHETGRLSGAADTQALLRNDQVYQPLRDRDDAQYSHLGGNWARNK
CD3 (Homo sapiens), sequence (P09693 23-182, chain 3 of 3, further chain): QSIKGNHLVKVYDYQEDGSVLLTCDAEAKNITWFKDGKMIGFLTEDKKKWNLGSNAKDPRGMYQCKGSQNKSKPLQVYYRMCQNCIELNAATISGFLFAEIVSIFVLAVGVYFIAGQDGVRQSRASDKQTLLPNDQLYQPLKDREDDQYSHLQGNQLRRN

UniProt P08637, sequence (P08637 17-254): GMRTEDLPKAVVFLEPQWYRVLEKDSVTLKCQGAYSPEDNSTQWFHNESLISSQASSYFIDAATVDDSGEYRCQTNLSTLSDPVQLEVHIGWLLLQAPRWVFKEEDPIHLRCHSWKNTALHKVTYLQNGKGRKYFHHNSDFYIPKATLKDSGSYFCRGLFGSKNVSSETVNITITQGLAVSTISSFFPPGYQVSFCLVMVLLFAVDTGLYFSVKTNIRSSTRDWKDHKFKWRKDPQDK

NKG2D-CD16 bispecific fusion protein (from UniProt P26718 78-216)
EC50 [1]: 2.2 nM

NKG2D-Fc-ADCC fusion protein (from UniProt P26718 73-216) (Fc fusion)
EC50 [2]: 20 nM

B1: NKG2D-CD3 bispecific fusion protein, P26718 78-216 (protein)
chain 1: EVQLQQSGPELVKPGASMKISCKASGYSFTGYTMNWVKQSHGKNLEWMGLINPYKGVSTYNQKFKDKATLTVDKSSSTAYMELLSLTSEDSAVYYCARSGYYGDSDWYFDVWGQGTTLTVFSASTKGPSVFPLAPSSKSTSGGTAALGCLVKDYFPEPVTVSWNSGALTSGVHTFPAVLQSSGLYSLSSVVTVPSSSLGTQTYICNVNHKPSNTKVDKKVEPKSCDKTHTSPPSPAPPVAGPSVFLFPPKPKDTLMISRTPEVTCVVVGVSHEDPEVKFNWYVDGVEVHNAKTKPREEQYQSTYRVVSVLTVLHQDWLNGKEYKCKVSNKQLPSPIEKTISKAKFLNSLFNQEVQIPLTESYCGPCPKNWICYKNNCYQFFDESKNWYESQASCMSQNASLLKVYSKEDQDLLKLVKSYHWMGLVHIPTNGSWQWEDGSILSPNLLTIIEMQKGDCALYASSFKGYIENCSTPNTYICMQRTV
chain 2: MDIQMTQTTSSLSASLGDRVTISCRASQDIRNYLNWYQQKPDGTVKLLIYYTSRLHSGVPSKFSGSGSGTDYSLTISNLEQEDIATYFCQQGNTLPWTFAGGTKLEIKRTVAAPSVFIFPPSDEQLKSGTASVVCLLNNFYPREAKVQWKVDNALQSGNSQESVTEQDSKDSTYSLSSTLTLSKADYEKHKVYACEVTHQGLSSPVTKSFNRGEC
EC50 (CD3 (Homo sapiens)): 2.1 nM
